We go through one molecule from publication PMC11201429.

The series addresses thrombin (human alpha-thrombin not specified) (human, UniProt P00734;P00734 328-363;364-622). Description: QCM-D; aptamer immobilised on streptavidin/biotin-PE/POPC bilayer; thrombin 1-25 ug/mL, shift 3 to 81 Hz; LOD 29 nM (not a Kd); PBS with CaCl2 and MgCl2 (concentrations not given), 0.1% BSA, 37 C; aptamer 0.5 uM loaded, heated to 95 C for 5 min and cooled to RT.

Take CGCCTAGGTTGGGTAGGGTGGTGGCG (structured_DNA, 5'-biotin) [NU172 thrombin aptamer]: the binding result is listed as “binds”.
